Reference: doi:10.1101/414334

How the values were obtained:
[1] = target: glyceraldehyde-3-phosphate dehydrogenase (GAPDH) of Thermosynechococcus elongatus (Thermosynechococcus elongatus BP-1); assay: crystal structure
[2] = target: glyceraldehyde-3-phosphate dehydrogenase (GAPDH) of Thermosynechococcus elongatus (Thermosynechococcus elongatus BP-1); assay: crystal structure; remark: listed apart in the source
[3] = target: glyceraldehyde-3-phosphate dehydrogenase (GAPDH) of Thermosynechococcus elongatus (Thermosynechococcus elongatus BP-1); assay: cryo-EM structure
[4] = target: phosphoribulokinase (PRK) of Thermosynechococcus elongatus, native (Thermosynechococcus elongatus (endogenous in T. elongatus cells)); assay: cryo-EM structure

Substance: CP12 of Thermosynechococcus elongatus (natural protein)
- stoichiometry N (CP12 per GAPDH tetramer) [1]: 4
- stoichiometry N (CP12 per GAPDH tetramer) [2]: 2
- stoichiometry N (CP12 per GAPDH tetramer) [3]: 2

Substance: glyceraldehyde-3-phosphate dehydrogenase (GAPDH) of Thermosynechococcus elongatus (enzyme)
- stoichiometry N [2]: 4
- stoichiometry N [3]: 4

Substance: phosphoribulokinase (PRK) of Thermosynechococcus elongatus, native (enzyme)
- stoichiometry N [4]: 2
